Positions count from the first letter of the chain named. In names and notes the source's numbering stands. Blank lines part the entries; values can stand above or below the binder they belong to.
Tests used:
[1] = target: T1, huPD-L1 on H441 cells (human, UniProt Q9NZQ7 19-290); assay: flow cytometry, % of positive H441 cells (human lung adenocarcinoma cells expressing PD-L1)
T1 construct: whole, on cells; also called H441 cells (expressing huPD-L1)
Experimental: The binding affinity of AVA04 Affimer polypeptides was determined using Flow cytometry on Human lung adenocarcinoma cell line. […] Cells were collected by centrifugation at 300 rpm for 5 min. The cells were resuspended in PBS and 50000 cells per wells were dispatched in a round bottom 96 well plate. Cells were washed with PBS. Affimer and controls were diluted in staining buffer (R&D) in duplicate and added on cells for staining for approximately 60 min at 4±1° c. Cells were washed and the secondary anti-Cystatin A (R&D) was diluted 1:15 in staining buffer (R&D) and added on cells for staining for approximately 40 min at 4±1° c. Cells were washed and the detection antibody A488 anti-Goat (Biolegend) was diluted 1:100 in staining buffer (R&D) and added on cells for staining for approximately 30 min at 4±1° c. Finally, cells were washed, live and dead cells were stained using L/D stain Zombie Aqua (Biolegend) diluted in staining buffer for 10 min at 4±1° c. Cells were washed and fixation buffer (R&D) was added to each well for 10 min at 4±1° C. then PBS with EDTA (Lonza) was added prior reading the plate on the flow cytometer (Guava 12 HT, Millipore). Dead cells were excluded and the fluorescent Green channel (488 nm/525/30) was acquired. Results were analyzed using Incyte and data were plotted using graphpad.

[2] = target: T2, huPD-L1-Fc (R&D Systems) (human, UniProt Q9NZQ7 19-239); assay: competition ELISA: hu PD-1-Fc coated, binder preincubated with 30 ng/ml huPD-L1-Fc; blocked ligand PD-1
T2 construct: Bought from R&D Systems; also called hPDL1-Fc; human PD-L1 Fc antigen
T2 sequence (Q9NZQ7 19-239 limits assumed): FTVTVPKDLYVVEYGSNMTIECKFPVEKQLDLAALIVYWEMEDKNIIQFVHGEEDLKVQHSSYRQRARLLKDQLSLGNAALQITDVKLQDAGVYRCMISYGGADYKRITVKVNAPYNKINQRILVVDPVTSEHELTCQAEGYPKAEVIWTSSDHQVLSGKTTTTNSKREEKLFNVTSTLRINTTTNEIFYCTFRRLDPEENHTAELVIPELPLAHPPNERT
Experimental: Plates were washed 2 times with 150 μl of washing buffer (PBS, Tween 20 0.1%) with a plate washer and saturated with Casein 5% (Sigma) in PBS for 90 minutes at room temperature (25±1° C.) Plates were washed as described previously. […] The reaction was stopped using an acidic solution and plates were read at 450-630 nm. The IC 50 was then calculated using the interpolated non-linear four-parameters standard curve.

[3] = target: T2, huPD-L1-Fc (R&D Systems); assay: Biacore T200, PD-L1-Fc immobilised on CM5, Affimer as analyte, 1:1 Langmuir fit
Experimental: The concentration titration of Affimer monomer was run as analyte with an association time of 150 seconds, followed by a dissociation time of 300 seconds at a flow rate of 30 μl/min. […] The data blank was subtracted and fit to a 1:1 Langmuir binding model (BIAcore evaluation software; GE) to calculate an apparent KD value.

[4] = target: T2, huPD-L1-Fc (R&D Systems); assay: Biacore
[5] = target: T2, huPD-L1-Fc (R&D Systems); assay: Biacore (target not named on the sheet; PD-L1 by the example)

T1 sequence (Q9NZQ7 19-290): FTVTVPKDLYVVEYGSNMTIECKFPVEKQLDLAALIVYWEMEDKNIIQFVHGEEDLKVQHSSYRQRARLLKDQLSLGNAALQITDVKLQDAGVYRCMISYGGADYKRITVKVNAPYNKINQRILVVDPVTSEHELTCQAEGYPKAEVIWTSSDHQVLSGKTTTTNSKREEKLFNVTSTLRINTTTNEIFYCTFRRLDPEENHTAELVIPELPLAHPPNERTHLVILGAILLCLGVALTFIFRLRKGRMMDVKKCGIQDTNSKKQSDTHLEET

- EC50 [1]: 9.51 nM
B1: AVA04-231 (designed binder)
Affimer polypeptide: MIPRGLSEAKPATPEIQEIVDKVKPQLEEKTNETYGKLEAVQYKTQVLANTWFPESFWSTNYYIKVRAGDNKYMHLKVFNGPDDNQERQEHADRVLTGYQVDKNKDDELTGFAAAGHHHHHH
notes: also called AVA04 clone 231

- IC50 [2]: 2.5 nM
- Kd [3]: 8.9 nM
- koff [3]: 0.0251 s⁻¹
- kon [3]: 2.81e+06 M⁻¹ s⁻¹
B2: AVA04-141 Monomer His (designed binder)
Affimer polypeptide: MIPRGLSEAKPATPEIQEIVDKVKPQLEEKTNETYGKLEAVQYKTQVLAAAHFPEHFWSTNYYIKVRAGDNKYMHLKVFNGPQPADMSAEFADRVLTGYQVDKNKDDELTGFAAAGHHHHHH
notes: also called Affimer monomer; AVA04 clone 141

- EC50 [1]: 0.18 nM
B3: AVA04-228 (designed binder)
Affimer polypeptide: MIPRGLSEAKPATPEIQEIVDKVKPQLEEKTNETYGKLEAVQYKTQVLAKPYGPRDWDSTNYYIKVRAGDNKYMHLKVFNGPEPQLDTSPIADRVLTGYQVDKNKDDELTGFAAAGHHHHHH
notes: also called AVA04 clone 228

- EC50 [1]: 0.043 nM
B4: AVA04-261 (designed binder)
chain: MIPRGLSEAKPATPEIQEIVDKVKPQLEEKTNETYGKLEAVQYKTQVLAHAYGPRDWDSTNYYIKVRAGDNKYMHLKVFNGPPADHVLEEAADRVLTGYQVDKNKDDELTGFAAAGHHHHHH

- Kd [4]: 0.0599 nM
- koff [5]: 0.000156 s⁻¹
- kon [5]: 2.61e+06 M⁻¹ s⁻¹
B5: AVA04-261 BN (designed binder)
chain: MIPRGLSEAKPATPEIQEIVDKVKPQLEEKTNETYGKLEAVQYKTQVLAHAYGPRDWDSTNYYIKVRAGDNKYMHLKVFNGPPADHVLEEAADRVLTGYQVDKNKDDELTGFGGGGSGGGGSGGGGSGGGGSEPKSCDKTHTCPPCPHHHHHH
notes: Affimer - (G4S)4 - human IgG1 hinge - His; dimerises through the hinge cysteines

- EC50 [1]: 2.06 nM
B6: AVA04-251 (designed binder)
chain: MIPRGLSEAKPATPEIQEIVDKVKPQLEEKTNETYGKLEAVQYKTQVLAREGRQDWVLSTNYYIKVRAGDNKYMHLKVFNGPWVPFPHQQLADRVLTGYQVDKNKDDELTGFAAAGHHHHHH

- EC50 [1]: 0.21 nM
B7: AVA04-211 (designed binder)
Affimer polypeptide: MIPRGLSEAKPATPEIQEIVDKVKPQLEEKTNETYGKLEAVQYKTQVLAKDWGPSNWWSTNYYIKVRAGDNKYMHLKVFNGPVDDKTLSKDADRVLTGYQVDKNKDDELTGFAAAGHHHHHH
notes: also called AVA04 clone 211

- EC50 [1]: 0.01 nM
B8: AVA04-269 (designed binder)
Affimer polypeptide: MIPRGLSEAKPATPEIQEIVDKVKPQLEEKTNETYGKLEAVQYKTQVLAKEYGPEEWWSTNYYIKVRAGDNKYMHLKVFNGPGDYEQVLIHADRVLTGYQVDKNKDDELTGFAAAGHHHHHH
notes: also called AVA04 clone 269

- EC50 [1]: 0.04 nM
B9: AVA04-227 (designed binder)
Affimer polypeptide: B7 Affimer polypeptide with W52H, S55I, N56A, V83E, D85T, K86N, L88D, S89G, K90A, D91L
notes: also called AVA04 clone 227

Reference: patent US20210163599A1 (AVACTA LIFE SCIENCES, published 2021)
